Measured values published in patent US7183387 (Genentech, dated 2007).

T1: human FcγRIIA-R131 α subunit extracellular domain-His6-GST fusion (human, UniProt P12318 34-217)
T1 construct: ECD-6His-GST fusion made in 293 cells; also called FcγRIIA-Arg131; not shown: glutathione S transferase (GST)
T1 sequence: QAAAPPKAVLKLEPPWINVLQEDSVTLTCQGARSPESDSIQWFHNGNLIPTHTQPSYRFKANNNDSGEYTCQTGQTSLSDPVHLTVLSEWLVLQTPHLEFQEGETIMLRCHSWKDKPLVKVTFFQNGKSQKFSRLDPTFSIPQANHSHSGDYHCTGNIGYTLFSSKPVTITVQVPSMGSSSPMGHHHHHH

B1: anti-IgE E27 IgG1 variant K334(353)A (antibody)
heavy: not shown
light: DIQLTQSPSSLSASVGDRVTITCRASKPVDGEGDSYLNWYQQKPGKAPKLLIYAASYLESGVPSRFSGSGSGTDFTLTISSLQPEDFATYYCQQSHEDPYTFGQGTKVEIKRTVAAPSVFIFPPSDEQLKSGTASVVCLLNNFYPREAKVQWKVDNALQSGNSQESVTEQDSKDSTYSLSSTLTLSKADYEKHKVYACEVTHQGLSSPVTKSFNRGEC
notes: Fc variant of E27; also called IG2 55; G55
B2: anti-IgE E27 IgG1 variant E333(352)N (antibody)
heavy: not shown
light: DIQLTQSPSSLSASVGDRVTITCRASKPVDGEGDSYLNWYQQKPGKAPKLLIYAASYLESGVPSRFSGSGSGTDFTLTISSLQPEDFATYYCQQSHEDPYTFGQGTKVEIKRTVAAPSVFIFPPSDEQLKSGTASVVCLLNNFYPREAKVQWKVDNALQSGNSQESVTEQDSKDSTYSLSSTLTLSKADYEKHKVYACEVTHQGLSSPVTKSFNRGEC
notes: Fc variant of E27; also called Glu333Asn
B3: anti-IgE E27 IgG1 variant R292(309)Q (antibody)
heavy: not shown
light: DIQLTQSPSSLSASVGDRVTITCRASKPVDGEGDSYLNWYQQKPGKAPKLLIYAASYLESGVPSRFSGSGSGTDFTLTISSLQPEDFATYYCQQSHEDPYTFGQGTKVEIKRTVAAPSVFIFPPSDEQLKSGTASVVCLLNNFYPREAKVQWKVDNALQSGNSQESVTEQDSKDSTYSLSSTLTLSKADYEKHKVYACEVTHQGLSSPVTKSFNRGEC
notes: Fc variant of E27; also called IG2 82
B4: anti-IgE E27 IgG1 variant E333(352)D (antibody)
heavy: not shown
light: DIQLTQSPSSLSASVGDRVTITCRASKPVDGEGDSYLNWYQQKPGKAPKLLIYAASYLESGVPSRFSGSGSGTDFTLTISSLQPEDFATYYCQQSHEDPYTFGQGTKVEIKRTVAAPSVFIFPPSDEQLKSGTASVVCLLNNFYPREAKVQWKVDNALQSGNSQESVTEQDSKDSTYSLSSTLTLSKADYEKHKVYACEVTHQGLSSPVTKSFNRGEC
notes: Fc variant of E27; also called Glu333Asp
B5: anti-IgE E27 IgG1 variant E333(352)S (antibody)
heavy: not shown
light: DIQLTQSPSSLSASVGDRVTITCRASKPVDGEGDSYLNWYQQKPGKAPKLLIYAASYLESGVPSRFSGSGSGTDFTLTISSLQPEDFATYYCQQSHEDPYTFGQGTKVEIKRTVAAPSVFIFPPSDEQLKSGTASVVCLLNNFYPREAKVQWKVDNALQSGNSQESVTEQDSKDSTYSLSSTLTLSKADYEKHKVYACEVTHQGLSSPVTKSFNRGEC
notes: Fc variant of E27; also called IG2 143
B6: anti-IgE E27 IgG1 variant E333(352)K (antibody)
heavy: not shown
light: DIQLTQSPSSLSASVGDRVTITCRASKPVDGEGDSYLNWYQQKPGKAPKLLIYAASYLESGVPSRFSGSGSGTDFTLTISSLQPEDFATYYCQQSHEDPYTFGQGTKVEIKRTVAAPSVFIFPPSDEQLKSGTASVVCLLNNFYPREAKVQWKVDNALQSGNSQESVTEQDSKDSTYSLSSTLTLSKADYEKHKVYACEVTHQGLSSPVTKSFNRGEC
notes: Fc variant of E27
B7: anti-IgE E27 IgG1 variant E293(310)Q (antibody)
heavy: not shown
light: DIQLTQSPSSLSASVGDRVTITCRASKPVDGEGDSYLNWYQQKPGKAPKLLIYAASYLESGVPSRFSGSGSGTDFTLTISSLQPEDFATYYCQQSHEDPYTFGQGTKVEIKRTVAAPSVFIFPPSDEQLKSGTASVVCLLNNFYPREAKVQWKVDNALQSGNSQESVTEQDSKDSTYSLSSTLTLSKADYEKHKVYACEVTHQGLSSPVTKSFNRGEC
notes: Fc variant of E27
B8: anti-IgE E27 IgG1 variant D265(278)A (antibody)
heavy: not shown
light: DIQLTQSPSSLSASVGDRVTITCRASKPVDGEGDSYLNWYQQKPGKAPKLLIYAASYLESGVPSRFSGSGSGTDFTLTISSLQPEDFATYYCQQSHEDPYTFGQGTKVEIKRTVAAPSVFIFPPSDEQLKSGTASVVCLLNNFYPREAKVQWKVDNALQSGNSQESVTEQDSKDSTYSLSSTLTLSKADYEKHKVYACEVTHQGLSSPVTKSFNRGEC
notes: Fc variant of E27; also called IG2 14; G14
B9: anti-IgE E27 IgG1 variant S298(317)V (antibody)
heavy: not shown
light: DIQLTQSPSSLSASVGDRVTITCRASKPVDGEGDSYLNWYQQKPGKAPKLLIYAASYLESGVPSRFSGSGSGTDFTLTISSLQPEDFATYYCQQSHEDPYTFGQGTKVEIKRTVAAPSVFIFPPSDEQLKSGTASVVCLLNNFYPREAKVQWKVDNALQSGNSQESVTEQDSKDSTYSLSSTLTLSKADYEKHKVYACEVTHQGLSSPVTKSFNRGEC
notes: Fc variant of E27; also called IG2 218
B10: anti-IgE E27 IgG1 variant E333(352)A (antibody)
heavy: not shown
light: DIQLTQSPSSLSASVGDRVTITCRASKPVDGEGDSYLNWYQQKPGKAPKLLIYAASYLESGVPSRFSGSGSGTDFTLTISSLQPEDFATYYCQQSHEDPYTFGQGTKVEIKRTVAAPSVFIFPPSDEQLKSGTASVVCLLNNFYPREAKVQWKVDNALQSGNSQESVTEQDSKDSTYSLSSTLTLSKADYEKHKVYACEVTHQGLSSPVTKSFNRGEC
notes: Fc variant of E27; also called IG2 54; G54
B11: anti-IgE E27 IgG1 variant K334(353)D (antibody)
heavy: not shown
light: DIQLTQSPSSLSASVGDRVTITCRASKPVDGEGDSYLNWYQQKPGKAPKLLIYAASYLESGVPSRFSGSGSGTDFTLTISSLQPEDFATYYCQQSHEDPYTFGQGTKVEIKRTVAAPSVFIFPPSDEQLKSGTASVVCLLNNFYPREAKVQWKVDNALQSGNSQESVTEQDSKDSTYSLSSTLTLSKADYEKHKVYACEVTHQGLSSPVTKSFNRGEC
notes: Fc variant of E27; also called IG2 140
B12: anti-IgE E27 IgG1 variant S298(317)A/E333(352)A/K334(353)A (antibody)
heavy: EVQLVESGGGLVQPGGSLRLSCAVSGYSITSGYSWNWIRQAPGKGLEWVASIKYSGETKYNPSVKGRITISRDDSKNTFYLQMNSLRAEDTAVYYCARGSHYFGHWHFAVWGQGTLVTVSSASTKGPSVFPLAPSSKSTSGGTAALGCLVKDYFPEPVTVSWNSGALTSGVHTFPAVLQSSGLYSLSSVVTVPSSSLGTQTYICNVNHKPSNTKVDKKVEPKSCDKTHTCPPCPAPELLGGPSVFLFPPKPKDTLMISRTPEVTCVVVDVSHEDPEVKFNWYVDGVEVHNAKTKPREEQYNATYRVVSVLTVLHQDWLNGKEYKCKVSNKALPAPIAATISKAKGQPREPQVYTLPPSREEMTKNQVSLTCLVKGFYPSDIAVEWESNGQPENNYKTTPPVLDSDGSFFLYSKLTVDKSRWQQGNVFSCSVMHEALHNHYTQKSLSLSPGK
light: DIQLTQSPSSLSASVGDRVTITCRASKPVDGEGDSYLNWYQQKPGKAPKLLIYAASYLESGVPSRFSGSGSGTDFTLTISSLQPEDFATYYCQQSHEDPYTFGQGTKVEIKRTVAAPSVFIFPPSDEQLKSGTASVVCLLNNFYPREAKVQWKVDNALQSGNSQESVTEQDSKDSTYSLSSTLTLSKADYEKHKVYACEVTHQGLSSPVTKSFNRGEC
notes: Fc variant of E27; also called IG2 110; Ser298Ala/Glu333Ala/Lys334Ala

Legend:
[1] = target: T2, human FcγRIIIA-V158 α subunit extracellular domain-His6-GST fusion (human, UniProt P08637 17-208); experiment: ELISA, IgG monomer, receptor coated
T2 construct: ECD-6His-GST fusion made in 293 cells; also called FcγRIIIA-Val158; not shown: glutathione S transferase (GST)

[2] = target: T2, human FcγRIIIA-V158 α subunit …; experiment: ELISA, IgG complex, receptor coated
[3] = target: T3, human FcγRIIIA-F158 α subunit extracellular domain-His6-GST fusion (human, UniProt P08637 17-208); experiment: ELISA, IgG complex, receptor coated
T3 construct: ECD-6His-GST fusion made in 293 cells; also called FcγRIIIA-Phe158; not shown: glutathione S transferase (GST)

[4] = target: T1, human FcγRIIA-R131 α subunit …; experiment: ELISA, IgG complex, receptor coated

T3 sequence (P08637 other isoform, or with tags, fused parts or gaps, form in doubt): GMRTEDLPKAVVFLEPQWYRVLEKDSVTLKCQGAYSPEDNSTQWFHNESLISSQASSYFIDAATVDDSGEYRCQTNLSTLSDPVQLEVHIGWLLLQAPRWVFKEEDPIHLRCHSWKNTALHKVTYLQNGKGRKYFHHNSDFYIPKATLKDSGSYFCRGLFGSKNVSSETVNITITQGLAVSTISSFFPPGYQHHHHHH
T2 sequence (P08637 other isoform, or with tags, fused parts or gaps, form in doubt): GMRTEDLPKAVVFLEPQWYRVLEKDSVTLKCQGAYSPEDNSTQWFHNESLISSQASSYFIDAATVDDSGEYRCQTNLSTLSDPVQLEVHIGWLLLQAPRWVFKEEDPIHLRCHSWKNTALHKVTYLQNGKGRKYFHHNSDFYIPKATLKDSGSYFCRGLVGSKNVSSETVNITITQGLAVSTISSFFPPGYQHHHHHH

Binder | ratio of binding, variant/native IgG1 (mean) [1] [ratio] | ratio of binding, variant/native IgG1 (mean) [2] [ratio] | ratio of binding, variant/native IgG1 (mean) [3] [ratio] | ratio of binding, variant/native IgG1 (mean) [4] [ratio]
B1 | 1.6 | 1.07 | 1.39 | 1.01
B2 | 0.56 | 0.64 | 0.56 | 0.59
B3 | 0.56 |  | 0.45 | 0.47
B4 | 1.7 | 1 | 1.26 | 
B5 | 1.07 | 0.99 | 0.94 | 
B6 | 0.81 | 0.88 | 0.85 | 
B7 | 0.97 | 1 | 0.99 | 0.85
B8 |  | 0.01 | 0.09 | 0.07
B9 | 0.39 | 0.88 | 0.33 | 
B10 | 1.29 | 1.1 | 1.27 | 0.92
B11 |  | 1.07 | 1.13 | 0.51
B12 |  | 1.19 | 1.66 | 0.35
